These results are taken from patent US20260242485A1 (LEPU BIOPHARMA, published 2026).

Experiment [1] has as its target T1, human CD16A-158F expressed on CHO-K1 cells (human, UniProt P08637 17-254).
T1 construct: whole, on cells
The experiment in a line: flow cytometry, CHO-K1-hCD16A-158F cells, geometric mean. Here is the method: (§1) In order to evaluate the binding activity of the chimeric mAbs to human CD16A expressed on cells, cell-based binding assay was employed as followed. […] The antibody dilutions were incubated with 1×10⁵ indicated cells in the 96-well microplate for one hour at 4° C. The antibodies binding to the antigen on the cell surface were detected with PE fluorophore-conjugated anti-human IgG Fc secondary antibodies (ThermoFisher scientific, Cat. No. 12-4998-82) at a dilution rate of 1:1000. Cells were analyzed by flow cytometer LSRFortessa Cell Analyzer (BD Biosciences). Data were analyzed with Flowjo 10.0 software. The graph and statistics analysis were generated with four-parameter nonlinear regression curve fit in Graphpad Prism 9 software.
(§2) The assay was performed following the protocol described above.
(A flow cytometer gives signals particle by particle.)

For experiment [2], the target named is T2, cynomolgus CD16 expressed on CHO-K1 cells (cynomolgus, UniProt Q8SPW2 17-254).
T2 construct: whole, on cells; also called cyno CD16; CHO-K1-cynoCD16
The experiment in a line: flow cytometry, CHO-K1-cyno CD16 cells, Alexa Fluor 647 anti-human IgG Fc, geometric mean. Here is the method: as §1
(§3) The assay was performed following the protocol described above. The antibodies binding to the antigen on the cell surface were detected with Alexa Fluor® 647 AffiniPure™ F(ab′)₂ fragment goat anti-human IgG Fcγ fragment specific secondary antibody (Jackson Immuno Research, Cat. No. 109-606-098) at a dilution rate of 1:2000.

In experiment [3] the target is T1, human CD16A-158F expressed on CHO-K1 …. As to the kind of experiment: flow cytometry, CHO-K1-hCD16A-158F cells, geometric mean. The source holds these as a separate data set.
Experiment [4] shares this target. As to the kind of experiment: flow cytometry, CHO-K1-hCD16A-158F cells, Alexa Fluor 647 anti-human IgG Fc, geometric mean. Here is the method:
as §1, §3

The target of experiment [5] is T3, human GPC3 on HepG2 cells (human, UniProt P51654 25-554).
T3 construct: whole, on cells; also called GPC3-positive HepG2 cells
The experiment in a line: flow cytometry, HepG2 cells (GPC3 positive), geometric mean.

The target in experiment [6] is T4, human CD16A-158V expressed on CHO-K1 cells (human, UniProt P08637 17-254).
T4 construct: whole, on cells; also called hCD16A-158V; CHO-K1-hCD16A-158V
The experiment in a line: flow cytometry, CHO-K1-hCD16A-158V cells, Alexa Fluor 647 anti-human IgG Fc, geometric mean. The protocol:
as §1, §3

The next experiment has as its target T5, hCD16A-158F-his protein (human, UniProt P08637 17-208).
T5 construct: Bought protein
The experiment in a line: ELISA, plate-coated his-tagged antigen 2 ug/mL. The protocol:
(§4) In order to determine the binding ability of the chimeric Abs to human CD16A protein, ELISA-based binding assay was performed as followed. […] The mixture was incubated for 1 hour at room temperature (RT). The primary antibody was recognized by a detective antibody against human IgG Fc which was conjugated with horseradish peroxidase (HRP) (Jackson Immuno, Cat. No. 109-035-008). Tetramethylbenzidine (TMB), a substrate of HRP, was added to the wells to visualize the binding signal. After sufficient color development, stop solution was added to the wells. The absorbance of the signal was detected at 450 nm with Envision multilabel plate readers (PerkinElemer). The graph and statistics analysis were generated with four-parameter nonlinear regression curve fit in Graphpad Prism 9 software.
In order to determine the cross reactivity of the chimeric Abs to cynomolgus CD16, ELISA binding assay was performed as described above. Recombinant cyno CD16 ECD his tag protein (cynoCD16-his, Acro Bio, Cat. No. FC6-C52H9) was used as the coating antigen at 2 μg/mL.
(ELISA stands for enzyme-linked immunosorbent assay.)

The target of experiment [7] is T4, human CD16A-158V expressed on CHO-K1 …. The experiment in a line: flow cytometry, CHO-K1-hCD16A-158V cells, geometric mean.
Experiment [8] has the same target. The experiment is described as above. Here is the method: as §1, §2
The source holds these as a separate data set.

Experiment [9] has as its target T2, cynomolgus CD16 expressed on CHO-K1 …. As to the kind of experiment: flow cytometry on antigen-expressing CHO-K1 cells. Here is the method:
as §1
(§5) CHO-K1 cells stably expressing cynomolgus CD16 were used in the following test.

For experiment [10], the target named is T4, human CD16A-158V expressed on CHO-K1 …. The experiment in a line: flow cytometry on antigen-expressing CHO-K1 cells. Here is the method:
as §1, §5

Experiment [11] deals with T1, human CD16A-158F expressed on CHO-K1 …. The experiment in a line: flow cytometry on antigen-expressing CHO-K1 cells. The protocol:
as §1, §5

The target in experiment [12] is T2, cynomolgus CD16 expressed on CHO-K1 …. The experiment in a line: flow cytometry, CHO-K1-cyno CD16 cells, geometric mean. The protocol: as §1, §2
Experiment [13] deals with T6, human CD16B-NA1 ECD his tag protein (human, UniProt O75015 17-200).
T6 construct: extracellular domain; Bought protein; also called hCD16B-NA1-his; hCD16B-NA1 protein
The experiment in a line: ELISA, hCD16B-NA1-his coated at 2 ug/mL, OD450. Here is the method:
as §4
In order to determine the binding ability of the chimeric Abs to human CD16B protein, ELISA binding assay was performed as previously described. Three spliced isoforms of CD16B including human CD16B-NA1 ECD his tag protein (hCD16B-NA1-his, Acro Bio, Cat: No. CDB-H5227), human CD16B-NA2 ECD his tag protein (hCD16B-NA2-his, Acro Bio, Cat: No. CDB-H82Ea) and human CD16B-SH-his protein, were used as the coating antigens at 2 μg/mL.

The target of experiment [14] is T7, human CD16B-NA1 expressed on CHO-K1 cells (human, UniProt O75015 17-200).
T7 construct: whole, on cells; also called hCD16B-NA1; CHO-K1-hCD16B-NA1
The experiment in a line: flow cytometry, CHO-K1-hCD16B-NA1 cells, geometric mean. The protocol:
as §1
To exclude the non-specific binding of the CD16A chimeric antibody to human CD16B and CD32B expressed on cells, cell-based binding assay was performed as described above. Firstly, CHO-K1 cells were stably transferred with one human CD16B spliced isoform hCD16B-NA1 and human CD32B. Then, the cells were incubated with the indicated concentrations of CD16A chimeric antibodies.

T4 sequence (P08637 17-254 F176V): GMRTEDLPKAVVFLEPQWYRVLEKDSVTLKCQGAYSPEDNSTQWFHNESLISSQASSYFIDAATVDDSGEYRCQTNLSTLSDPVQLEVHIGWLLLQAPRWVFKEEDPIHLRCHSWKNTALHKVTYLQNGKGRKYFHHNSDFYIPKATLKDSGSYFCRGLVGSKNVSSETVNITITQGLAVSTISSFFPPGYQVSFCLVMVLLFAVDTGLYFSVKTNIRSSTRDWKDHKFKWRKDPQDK
T2 sequence (Q8SPW2 17-254): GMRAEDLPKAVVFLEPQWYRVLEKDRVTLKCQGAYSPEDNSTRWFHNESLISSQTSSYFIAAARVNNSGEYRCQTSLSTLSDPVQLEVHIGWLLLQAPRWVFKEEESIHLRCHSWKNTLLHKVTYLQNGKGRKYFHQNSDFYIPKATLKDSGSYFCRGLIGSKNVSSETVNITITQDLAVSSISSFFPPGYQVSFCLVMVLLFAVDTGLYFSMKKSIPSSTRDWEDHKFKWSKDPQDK
T1 sequence (P08637 17-254): as the sequence (P08637 17-254 F176V) above, with V160F counted along it
T5 sequence (P08637 17-208 limits assumed): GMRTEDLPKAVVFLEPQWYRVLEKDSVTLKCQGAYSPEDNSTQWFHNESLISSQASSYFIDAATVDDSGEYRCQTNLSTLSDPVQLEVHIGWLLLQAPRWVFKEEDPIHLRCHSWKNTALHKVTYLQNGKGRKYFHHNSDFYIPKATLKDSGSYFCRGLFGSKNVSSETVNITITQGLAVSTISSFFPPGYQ
T7 sequence (O75015 other isoform, or with tags, fused parts or gaps): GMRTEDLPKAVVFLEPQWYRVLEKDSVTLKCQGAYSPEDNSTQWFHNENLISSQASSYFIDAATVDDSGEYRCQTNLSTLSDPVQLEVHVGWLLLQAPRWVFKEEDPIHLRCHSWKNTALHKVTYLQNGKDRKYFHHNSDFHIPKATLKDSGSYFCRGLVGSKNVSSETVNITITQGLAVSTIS
T6 sequence (O75015 other isoform, or with tags, fused parts or gaps limits assumed): as the sequence (O75015 other isoform, or with tags, fused parts or gaps) above
T3 sequence (P51654 25-554 limits assumed): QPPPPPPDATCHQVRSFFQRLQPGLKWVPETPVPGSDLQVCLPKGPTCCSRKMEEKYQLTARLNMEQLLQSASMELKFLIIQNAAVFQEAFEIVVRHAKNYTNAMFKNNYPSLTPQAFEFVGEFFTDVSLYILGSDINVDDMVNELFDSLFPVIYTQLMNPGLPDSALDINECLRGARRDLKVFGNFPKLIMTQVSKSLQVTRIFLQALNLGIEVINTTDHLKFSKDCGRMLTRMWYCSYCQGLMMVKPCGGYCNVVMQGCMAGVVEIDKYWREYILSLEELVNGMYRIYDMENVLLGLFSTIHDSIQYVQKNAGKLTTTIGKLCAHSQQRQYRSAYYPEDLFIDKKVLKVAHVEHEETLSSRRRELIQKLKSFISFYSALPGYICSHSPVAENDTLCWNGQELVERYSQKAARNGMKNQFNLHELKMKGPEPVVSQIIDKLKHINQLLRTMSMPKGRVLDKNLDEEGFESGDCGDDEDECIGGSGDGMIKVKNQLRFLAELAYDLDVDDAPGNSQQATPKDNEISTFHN

B1: P2C47-hIgG1 LALAPG (antibody)
heavy: QVQLVQSGAEVKKPGESLKVSCKASGYTFTSYYMHWVRQAPGQGLEWMGAIEPMYGSTSYAQKFQGRVTMTRDTSTSTVYMELSSLRSEDTAVYYCARGSAYYYDFADYWGQGTLVTVSSASTKGPSVFPLAPSSKSTSGGTAALGCLVKDYFPEPVTVSWNSGALTSGVHTFPAVLQSSGLYSLSSVVTVPSSSLGTQTYICNVNHKPSNTKVDKKVEPKSCDKTHTCPPCPAPEAAGGPSVFLFPPKPKDTLMISRTPEVTCVVVDVSHEDPEVKFNWYVDGVEVHNAKTKPREEQYNSTYRVVSVLTVLHQDWLNGKEYKCKVSNKALGAPIEKTISKAKGQPREPQVYTLPPSREEMTKNQVSLTCLVKGFYPSDIAVEWESNGQPENNYKTTPPVLDSDGSFFLYSKLTVDKSRWQQGNVFSCSVMHEALHNHYTQKSLSLSPGK
light: SYVLTQPSSVSVAPGQTATISCGGHNIGSKNVHWYQQRPGQSPVLVIYQDNKRPSGIPERFSGSNSGNTATLTISGTQAMDEADYYCQVWDNYSVLFGGGTKLTVLGQPKANPTVTLFPPSSEELQANKATLVCLISDFYPGAVTVAWKADGSPVKAGVETTKPSKQSNNKYAASSYLSLTPEQWKSHRSYSCQVTHEGSTVEKTVAPTECS
notes: also called benchmark antibody P2C47
As usually defined, the EC50 (read off the curve) is the concentration giving half of the maximal effect. A higher EC50 (read off the curve) goes with a need for much substance. As usually defined, the EC50 is the concentration that produces a half-maximal response. The low end stands for an effect from little substance, the high end for a need for much substance. For B1, the concentration for a half-maximal effect (EC50 (read off the curve)) is roughly 0.4 nM in experiment [1]; roughly 1 nM in [2]; roughly 0.5 nM in experiment [3]; roughly 0.4 nM in experiment [4]; roughly 0.4 nM in [6]; roughly 0.5 nM in experiment [7]. In addition, the “EC50 (read off the curve)” value was roughly 0.4 nM in [8] and roughly 0.7 nM in experiment [12]. The binding result in [5] is listed as “no binding (tested: 100 nM)”; in experiment [13], “no binding (tested: 20 nM)”; in experiment [14], “no binding (tested: 100 nM)”. Moreover, the EC50 amounted to 0.32 nM in the experiment with hCD16A-158F-his protein, 1.74 nM in experiment [9], 0.61 nM in [10] and 0.57 nM in experiment [11].

B2: 45H6E8-hIgG1 LALAPG (antibody)
heavy: EVQLQQSGAELVRSGASVKLSCTASGFNIKDYYMQWVKQRPEQGLEWIGWIDPENGDTEYAPKFQGKATMTADTSSNTAYLQLSSLTSEDTAVYYCTTGGNYVDWGQGTTLTVSSASTKGPSVFPLAPSSKSTSGGTAALGCLVKDYFPEPVTVSWNSGALTSGVHTFPAVLQSSGLYSLSSVVTVPSSSLGTQTYICNVNHKPSNTKVDKKVEPKSCDKTHTCPPCPAPEAAGGPSVFLFPPKPKDTLMISRTPEVTCVVVDVSHEDPEVKFNWYVDGVEVHNAKTKPREEQYNSTYRVVSVLTVLHQDWLNGKEYKCKVSNKALGAPIEKTISKAKGQPREPQVYTLPPSREEMTKNQVSLTCLVKGFYPSDIAVEWESNGQPENNYKTTPPVLDSDGSFFLYSKLTVDKSRWQQGNVFSCSVMHEALHNHYTQKSLSLSPGK
light: DIVMTQSQKFMSTSVGDRVSITCKASQNVGTAVAWYQQKPGQSPKLLIYSASNRYTGVPDRFTGSGSGTDFTLTISNMQSEDLADYFCQQYSSYPLLTFGAGTNLELKRTVAAPSVFIFPPSDEQLKSGTASVVCLLNNFYPREAKVQWKVDNALQSGNSQESVTEQDSKDSTYSLSSTLTLSKADYEKHKVYACEVTHQGLSSPVTKSFNRGEC
notes: also called 45H6E8 chimeric antibody
In the case of B2, the concentration giving a half-maximal response (EC50 (read off the curve)) in experiment [1] is roughly 0.4 nM; in [2] it was roughly 1 nM; in experiment [3], roughly 0.5 nM; in [4] it was roughly 0.4 nM; in [6], roughly 0.4 nM; in [7] it was roughly 0.5 nM. Besides, the 50% effective concentration (EC50 (read off the curve)) was roughly 0.4 nM in experiment [8] and roughly 0.7 nM in [12]. In addition, the results for the binding result in experiment [5], in [13] and in experiment [14] were “no binding (tested: 100 nM)”, “no binding (tested: 20 nM)” and “no binding (tested: 100 nM)”, respectively. The EC50 came out at 0.33 nM with hCD16A-158F-his protein, 1.74 nM in [9], 0.36 nM in [10] and 0.4 nM in experiment [11].
